According to PMC6019658 (Protein & Cell, 2017):

Target: the molecule itself
Assay: cryo-EM structure; single-particle cryo-EM of purified YnaI in amphipols; 20 mmol/L Mes pH 6.5, 200 mmol/L NaCl, 5 mmol/L DTT; 0.1 mg/mL on grids; homoheptamer

B1: YnaI channel (MscS-like mechanosensitive channel of E. coli) (natural protein, UniProt P0AEB5 1-343, looked up)
chain: MIAELFTNNALNLVIIFGSCAALILMSFWFRRGNRKRKGFLFHAVQFLIYTIIISAVGSIINYVIENYKLKFITPGVIDFICTSLIAVILTIKLFLLINQFEKQQIKKGRDITSARIMSRIIKITIIVVLVLLYGEHFGMSLSGLLTFGGIGGLAVGMAGKDILSNFFSGIMLYFDRPFSIGDWIRSPDRNIEGTVAEIGWRITKITTFDNRPLYVPNSLFSSISVENPGRMTNRRITTTIGLRYEDAAKVGVIVEAVREMLKNHPAIDQRQTLLVYFNQFADSSLNIMVYCFTKTTVWAEWLAAQQDVYLKIIDIVQSHGADFAFPSQTLYMDNITPPEQGR
  stoichiometry N: 7
